Reference: publication doi:10.1101/2021.08.20.457142

B1: MKK7 D-site peptide (second D-site) / JNK1 alpha1 (MAPK8 isoform 1) L198A, full length (parent complex)
chain 1: SQPQRPRPTLQLPLANEAFEQP
chain 2: MSRSKRDNNFYSVEIGDSTFTVLKRYQNLKPIGSGAQGIVCAAYDAILERNVAIKKLSRPFQNQTHAKRAYRELVLMKCVNHKNIIGLLNVFTPQKSLEEFQDVYIVMELMDANLCQVIQMELDHERMSYLLYQMLCGIKHLHSAGIIHRDLKPSNIVVKSDCTLKILDFGLARTAGTSFMMTPYVVTRYYRAPEVIAGMGYKENVDLWSVGCIMGEMVCHKILFPGRDYIDQWNKVIEQLGTPCPEFMKKLQPTVRTYVENRPKYAGYSFEKLFPDVLFPADSEHNKLKASQARDLLSKMLVIDASKRISVDEALQHPYINVWYDPSEAEAPPPKIPDKQLDEREHTIEEWKELIYKEVMDLEERTKNGVIRGQPSPLAQVQQ

Variants of: B1

Variant	screen value
chain 1 T9F	1.43 Z-score of the enrichment rate within one screen of 711 sequences
chain 1 R5W	0.845 Z-score of the enrichment rate within one screen of 711 sequences
chain 1 Q4L	1.47 Z-score of the enrichment rate within one screen of 711 sequences
chain 1 R7G	-0.481 Z-score of the enrichment rate within one screen of 711 sequences
chain 1 T9Q	0.994 Z-score of the enrichment rate within one screen of 711 sequences
chain 1 A15F	1.59 Z-score of the enrichment rate within one screen of 711 sequences
chain 1 R5E	0.07 Z-score of the enrichment rate within one screen of 711 sequences
chain 1 R7L	0.372 Z-score of the enrichment rate within one screen of 711 sequences
chain 1 R7Q	-0.0451 Z-score of the enrichment rate within one screen of 711 sequences
chain 1 Q11W	2.17 Z-score of the enrichment rate within one screen of 711 sequences
chain 1 Q11C	1.43 Z-score of the enrichment rate within one screen of 711 sequences
chain 1 P13A, chain 1 N16A	1.11 Z-score of the enrichment rate within one screen of 711 sequences
chain 1 P8L	1.88 Z-score of the enrichment rate within one screen of 711 sequences
chain 1 Q11G	0.875 Z-score of the enrichment rate within one screen of 711 sequences
chain 1 R7K	0.788 Z-score of the enrichment rate within one screen of 711 sequences
chain 1 L10S	-0.668 Z-score of the enrichment rate within one screen of 711 sequences
chain 1 L10N	-0.671 Z-score of the enrichment rate within one screen of 711 sequences
chain 1 N16G	1.5 Z-score of the enrichment rate within one screen of 711 sequences
chain 1 R7F	0.186 Z-score of the enrichment rate within one screen of 711 sequences
chain 1 P3A, chain 1 N16A	1.34 Z-score of the enrichment rate within one screen of 711 sequences
chain 1 Q4F	1.4 Z-score of the enrichment rate within one screen of 711 sequences
chain 1 L12I	0.938 Z-score of the enrichment rate within one screen of 711 sequences
chain 1 N16W	2.16 Z-score of the enrichment rate within one screen of 711 sequences
chain 1 L10A, chain 1 P13A	-0.374 Z-score of the enrichment rate within one screen of 711 sequences
chain 1 P6C	0.713 Z-score of the enrichment rate within one screen of 711 sequences

Variant	screen value
chain 1 L12N	-0.321 Z-score of the enrichment rate within one screen of 711 sequences
chain 1 N16T	1.34 Z-score of the enrichment rate within one screen of 711 sequences
chain 1 R7I	0.221 Z-score of the enrichment rate within one screen of 711 sequences
chain 1 P3N	1.46 Z-score of the enrichment rate within one screen of 711 sequences
chain 1 A15S	1.46 Z-score of the enrichment rate within one screen of 711 sequences
chain 1 R5A, chain 1 T9A	0.257 Z-score of the enrichment rate within one screen of 711 sequences
chain 1 Q11N	1.79 Z-score of the enrichment rate within one screen of 711 sequences
chain 1 R5A, chain 1 P6A	0.351 Z-score of the enrichment rate within one screen of 711 sequences
chain 1 T9Y	1.15 Z-score of the enrichment rate within one screen of 711 sequences
chain 1 R5P	0.594 Z-score of the enrichment rate within one screen of 711 sequences
chain 1 P3A, chain 1 R5A	0.535 Z-score of the enrichment rate within one screen of 711 sequences
chain 1 R5A, chain 1 Q11A	0.344 Z-score of the enrichment rate within one screen of 711 sequences
chain 1 L14F	1.33 Z-score of the enrichment rate within one screen of 711 sequences
chain 1 L10T	-0.588 Z-score of the enrichment rate within one screen of 711 sequences
chain 1 P13Q	1.52 Z-score of the enrichment rate within one screen of 711 sequences
chain 1 P8A, chain 1 T9A	0.477 Z-score of the enrichment rate within one screen of 711 sequences
chain 1 N16E	1.28 Z-score of the enrichment rate within one screen of 711 sequences
chain 1 R5A	0.263 Z-score of the enrichment rate within one screen of 711 sequences
chain 1 P8F	1.67 Z-score of the enrichment rate within one screen of 711 sequences
chain 1 Q4I	1.36 Z-score of the enrichment rate within one screen of 711 sequences
chain 1 Q4A, chain 1 L10A	-0.57 Z-score of the enrichment rate within one screen of 711 sequences
chain 1 P13V	1.22 Z-score of the enrichment rate within one screen of 711 sequences
chain 1 P8C	0.83 Z-score of the enrichment rate within one screen of 711 sequences
chain 1 L14A	0.48 Z-score of the enrichment rate within one screen of 711 sequences
chain 1 Q4A, chain 1 R5A	0.359 Z-score of the enrichment rate within one screen of 711 sequences

Variant	screen value
chain 1 P8K	1.01 Z-score of the enrichment rate within one screen of 711 sequences
chain 1 P6Q	1.26 Z-score of the enrichment rate within one screen of 711 sequences
chain 1 N16P	0.929 Z-score of the enrichment rate within one screen of 711 sequences
chain 1 T9L	1.24 Z-score of the enrichment rate within one screen of 711 sequences
chain 1 A15K	1.73 Z-score of the enrichment rate within one screen of 711 sequences
chain 1 R7E	-0.371 Z-score of the enrichment rate within one screen of 711 sequences
chain 1 P6A	1.29 Z-score of the enrichment rate within one screen of 711 sequences
chain 1 R7N	-0.0352 Z-score of the enrichment rate within one screen of 711 sequences
chain 1 P8N	0.584 Z-score of the enrichment rate within one screen of 711 sequences
chain 1 P8I	0.845 Z-score of the enrichment rate within one screen of 711 sequences
chain 1 L14D	0.409 Z-score of the enrichment rate within one screen of 711 sequences
chain 1 P13N	1.87 Z-score of the enrichment rate within one screen of 711 sequences
chain 1 L10A, chain 1 L14A	-0.882 Z-score of the enrichment rate within one screen of 711 sequences
chain 1 P13D	1.95 Z-score of the enrichment rate within one screen of 711 sequences
chain 1 L10P	-0.494 Z-score of the enrichment rate within one screen of 711 sequences
chain 1 R7M	0.323 Z-score of the enrichment rate within one screen of 711 sequences
chain 1 P6T	1.07 Z-score of the enrichment rate within one screen of 711 sequences
chain 1 P8A, chain 1 Q11A	0.343 Z-score of the enrichment rate within one screen of 711 sequences
chain 1 L12E	-0.637 Z-score of the enrichment rate within one screen of 711 sequences
chain 1 N16H	1.43 Z-score of the enrichment rate within one screen of 711 sequences
chain 1 R5V	0.568 Z-score of the enrichment rate within one screen of 711 sequences
chain 1 P3F	1.46 Z-score of the enrichment rate within one screen of 711 sequences
chain 1 L12A	-0.706 Z-score of the enrichment rate within one screen of 711 sequences
chain 1 A15I	0.806 Z-score of the enrichment rate within one screen of 711 sequences
chain 1 R7A	0.016 Z-score of the enrichment rate within one screen of 711 sequences

Variant	screen value
chain 1 R5A, chain 1 P8A	0.293 Z-score of the enrichment rate within one screen of 711 sequences
chain 1 L10R	-0.363 Z-score of the enrichment rate within one screen of 711 sequences
chain 1 A15Q	1.51 Z-score of the enrichment rate within one screen of 711 sequences
chain 1 L14R	0.833 Z-score of the enrichment rate within one screen of 711 sequences
chain 1 P8V	0.848 Z-score of the enrichment rate within one screen of 711 sequences
chain 1 L14T	0.9 Z-score of the enrichment rate within one screen of 711 sequences
chain 1 L14I	1.9 Z-score of the enrichment rate within one screen of 711 sequences
chain 1 P8M	2.24 Z-score of the enrichment rate within one screen of 711 sequences
chain 1 Q11Y	2.41 Z-score of the enrichment rate within one screen of 711 sequences
chain 1 T9M	1.06 Z-score of the enrichment rate within one screen of 711 sequences
chain 1 A15C	1.49 Z-score of the enrichment rate within one screen of 711 sequences
chain 1 R7A, chain 1 P8A	-0.277 Z-score of the enrichment rate within one screen of 711 sequences
chain 1 R5A, chain 1 L14A	-0.406 Z-score of the enrichment rate within one screen of 711 sequences
chain 1 Q4Y	1.67 Z-score of the enrichment rate within one screen of 711 sequences
chain 1 R7A, chain 1 L14A	-0.345 Z-score of the enrichment rate within one screen of 711 sequences
chain 1 T9C	1.27 Z-score of the enrichment rate within one screen of 711 sequences
chain 1 P6F	1.06 Z-score of the enrichment rate within one screen of 711 sequences
chain 1 R7V	0.194 Z-score of the enrichment rate within one screen of 711 sequences
chain 1 A15E	1.37 Z-score of the enrichment rate within one screen of 711 sequences
chain 1 A15W	1.84 Z-score of the enrichment rate within one screen of 711 sequences
chain 1 L10G	-0.672 Z-score of the enrichment rate within one screen of 711 sequences
chain 1 Q11A, chain 1 P13A	1.38 Z-score of the enrichment rate within one screen of 711 sequences
chain 1 Q11E	1.43 Z-score of the enrichment rate within one screen of 711 sequences
chain 1 P6L	1.25 Z-score of the enrichment rate within one screen of 711 sequences
chain 1 P13H	1.44 Z-score of the enrichment rate within one screen of 711 sequences

Variant	screen value
chain 1 L12P	-0.637 Z-score of the enrichment rate within one screen of 711 sequences
chain 1 A15T	1.58 Z-score of the enrichment rate within one screen of 711 sequences
chain 1 P8A, chain 1 L10A	-0.67 Z-score of the enrichment rate within one screen of 711 sequences
chain 1 P13L	1.38 Z-score of the enrichment rate within one screen of 711 sequences
chain 1 R5D	-0.21 Z-score of the enrichment rate within one screen of 711 sequences
chain 1 A15V	1.42 Z-score of the enrichment rate within one screen of 711 sequences
chain 1 Q4A, chain 1 R7A	0.0948 Z-score of the enrichment rate within one screen of 711 sequences
chain 1 Q11H	1.89 Z-score of the enrichment rate within one screen of 711 sequences
chain 1 P3D	1.22 Z-score of the enrichment rate within one screen of 711 sequences
chain 1 R5A, chain 1 P13A	0.748 Z-score of the enrichment rate within one screen of 711 sequences
chain 1 P13S	1.22 Z-score of the enrichment rate within one screen of 711 sequences
chain 1 P6A, chain 1 L12A	-0.68 Z-score of the enrichment rate within one screen of 711 sequences
chain 1 T9A, chain 1 L12A	-0.742 Z-score of the enrichment rate within one screen of 711 sequences
chain 1 N16C	1.62 Z-score of the enrichment rate within one screen of 711 sequences
chain 1 R7P	0.478 Z-score of the enrichment rate within one screen of 711 sequences
chain 1 P3A, chain 1 P8A	0.357 Z-score of the enrichment rate within one screen of 711 sequences
chain 1 L12A, chain 1 P13A	-0.381 Z-score of the enrichment rate within one screen of 711 sequences
chain 1 P13C	1.25 Z-score of the enrichment rate within one screen of 711 sequences
chain 1 N16A	1.29 Z-score of the enrichment rate within one screen of 711 sequences
chain 1 R5A, chain 1 R7A	-0.162 Z-score of the enrichment rate within one screen of 711 sequences
chain 1 L10A	-0.392 Z-score of the enrichment rate within one screen of 711 sequences
chain 1 N16V	1.95 Z-score of the enrichment rate within one screen of 711 sequences
chain 1 R5A, chain 1 L12A	-0.522 Z-score of the enrichment rate within one screen of 711 sequences
chain 1 L12C	-0.457 Z-score of the enrichment rate within one screen of 711 sequences
chain 1 P6H	1.12 Z-score of the enrichment rate within one screen of 711 sequences

Variant	screen value
chain 1 P3I	1.41 Z-score of the enrichment rate within one screen of 711 sequences
chain 1 P3V	1.59 Z-score of the enrichment rate within one screen of 711 sequences
chain 1 Q4A, chain 1 P13A	1.2 Z-score of the enrichment rate within one screen of 711 sequences
chain 1 P8W	0.971 Z-score of the enrichment rate within one screen of 711 sequences
chain 1 Q4P	1.26 Z-score of the enrichment rate within one screen of 711 sequences
chain 1 Q11T	2.32 Z-score of the enrichment rate within one screen of 711 sequences
chain 1 L12V	-0.205 Z-score of the enrichment rate within one screen of 711 sequences
chain 1 P6V	0.968 Z-score of the enrichment rate within one screen of 711 sequences
chain 1 Q11I	1.51 Z-score of the enrichment rate within one screen of 711 sequences
chain 1 R5A, chain 1 L10A	-0.687 Z-score of the enrichment rate within one screen of 711 sequences
chain 1 P3A, chain 1 P6A	0.9 Z-score of the enrichment rate within one screen of 711 sequences
chain 1 R5I	0.772 Z-score of the enrichment rate within one screen of 711 sequences
chain 1 R7A, chain 1 L12A	-0.492 Z-score of the enrichment rate within one screen of 711 sequences
chain 1 P3M	1.81 Z-score of the enrichment rate within one screen of 711 sequences
chain 1 T9H	1.34 Z-score of the enrichment rate within one screen of 711 sequences
chain 1 R7A, chain 1 N16A	0.334 Z-score of the enrichment rate within one screen of 711 sequences
chain 1 T9E	0.507 Z-score of the enrichment rate within one screen of 711 sequences
chain 1 T9W	1.21 Z-score of the enrichment rate within one screen of 711 sequences
chain 1 P8A, chain 1 L14A	-0.643 Z-score of the enrichment rate within one screen of 711 sequences
chain 1 P8Q	0.499 Z-score of the enrichment rate within one screen of 711 sequences
chain 1 L10V	-0.341 Z-score of the enrichment rate within one screen of 711 sequences
chain 1 N16L	1.52 Z-score of the enrichment rate within one screen of 711 sequences
chain 1 P8A, chain 1 P13A	0.299 Z-score of the enrichment rate within one screen of 711 sequences
chain 1 L14K	0.866 Z-score of the enrichment rate within one screen of 711 sequences
chain 1 Q4A, chain 1 P8A	0.697 Z-score of the enrichment rate within one screen of 711 sequences
